For assay [1], the target named is C-terminal SH3 domain of the growth factor receptor-bound protein 2 (Grb2) (UniProt P62993). The assay is described as follows: stopped-flow binding kinetics (intrinsic fluorescence); pseudo-first order; Grb2 SH3C constant at 0.5 μM, Gab2 503-524 peptide 1-10 μM (1-12 μM for P519A); 10°C; 25mM HEPES, 100mM potassium acetate, pH 7.5; apparent association and dissociation rate constants.

The target is the same in assay [2]. The assay can be described thus: stopped-flow displacement kinetics (intrinsic fluorescence); pre-incubated complex of wild type Grb2 SH3C (10 μM) and Gab2 503-524 (10 μM) mixed with excess Grb2 SH3C W35Y/W36Y (100 μM and 200 μM); 25°C; 25mM HEPES, 100mM potassium acetate, pH 7.5.

Sequence of Gab2 503-524 peptide, wild type (Q9UQC2 503-524): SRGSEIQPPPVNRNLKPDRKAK

Turning to Gab2 503-524 peptide, variant P510A, the Kd in assay [1] amounted to 2500 nM.
Still for that read-out and setting: under Gab2 503-524 peptide, variant P512A stands 2500 nM.
Same read-out and setting: under Gab2 503-524 peptide, variant P519A stands 12000 nM.
On to Gab2 503-524 peptide, wild type, for which, in assay [1], the dissociation rate constant (koff) turned out to be 53 s⁻¹ and the kon came to 4.3e+07 M⁻¹ s⁻¹. This substance returned an off-rate (koff) in assay [2] of 350 s⁻¹.

These data come from paper PMC5669894.
